Changes are numbered by the printed parent chain. Numbers in names are those of the source.

This passage reports Kd, koff and kon results from patent publication US20240294593A1 (Genentech, published 2024).

Sequences and labels used below:
B1: H1.142_L1 (antibody, V domains shown)
VH: EVQLVESGGGLVQPGGSLRLSCAASGFTFSSFGMHWVRQAPGKGLEWVSYISSGSSIIYYADSVKGRFTISRDNAKNSLYLQMNSLRAEDTAVYYCARGGRLTWSPDYWGQGTLVTVSS
VL: DIVMTQSPDSLAVSLGERATINCKSSQSLLNSGNQKNYLTWYQQKPGQPPKLLIYWASTRESGVPDRFTGSGSGTDFTLTISSLQAEDVAVYYCQNDYSYPFTFGSGTKLEIKR
notes: also called VH-V111T; Kabat 99
B2: H1.144_L1 (antibody, V domains shown)
VH: B1 VH with T103L
VL: B1 VL
notes: also called VH-V111L; Kabat 99
B3: mAb C H1.132_L1 (antibody, V domains shown)
VH: B1 VH with R101W, T103V
VL: B1 VL
notes: copies: 2 + 2
B4: H1.143_L1 (antibody, V domains shown)
VH: B1 VH with T103I
VL: B1 VL
notes: also called VH-V111I; Kabat 99
B5: H1.145_L1 (antibody, V domains shown)
VH: B1 VH with T103A
VL: B1 VL
notes: also called VH-V111A; Kabat 99
B6: H1.146_L1 (antibody, V domains shown)
VH: B1 VH with T103Y
VL: B1 VL
notes: also called VH-V111Y; Kabat 99
B7: H1_L1.26 (antibody, V domains shown)
VH: B1 VH with T103V
VL: B1 VL with N34S
notes: also called VL-N34S; Kabat 28
B8: H1_L1.30 (antibody, V domains shown)
VH: B1 VH with T103V
VL: B1 VL with N34G
notes: also called VL-N34G; Kabat 28
B9: H1_L1.32 (antibody, V domains shown)
VH: B1 VH with T103V
VL: B1 VL with Q35E
notes: also called VL-Q35E; Kabat 29
B10: H1_L1.40 (antibody, V domains shown)
VH: B1 VH with T103V
VL: B1 VL with K36E
notes: also called VL-K36E; Kabat 30
B11: H1_L1.29 (antibody, V domains shown)
VH: B1 VH with T103V
VL: B1 VL with N34T
notes: also called VL-N34T; Kabat 28
B12: H1_L1.27 (antibody, V domains shown)
VH: B1 VH with T103V
VL: B1 VL with N34R
notes: also called VL-N34R; Kabat 28
B13: H1_L1.35 (antibody, V domains shown)
VH: B1 VH with T103V
VL: B1 VL with Q35K
notes: also called VL-Q35K; Kabat 29
B14: H1_L1.37 (antibody, V domains shown)
VH: B1 VH with T103V
VL: B1 VL with Q35F
notes: also called VL-Q35F; Kabat 29
B15: H1_L1.24 (antibody, V domains shown)
VH: B1 VH with T103V
VL: B1 VL with N34H
notes: also called VL-N34H; Kabat 28
B16: H1_L1.22 (antibody, V domains shown)
VH: B1 VH with T103V
VL: B1 VL with G33Y
notes: also called VL-G33Y; Kabat 27f
B17: H1_L1.39 (antibody, V domains shown)
VH: B1 VH with T103V
VL: B1 VL with K36R
notes: also called VL-K36R; Kabat 30
B18: H1_L1.25 (antibody, V domains shown)
VH: B1 VH with T103V
VL: B1 VL with N34E
notes: also called VL-N34E; Kabat 28
B19: H1_L1.38 (antibody, V domains shown)
VH: B1 VH with T103V
VL: B1 VL with Q35I
notes: also called VL-Q35I; Kabat 29
B20: H1_L1.33 (antibody, V domains shown)
VH: B1 VH with T103V
VL: B1 VL with Q35H
notes: also called VL-Q35H; Kabat 29
B21: H1_L1.36 (antibody, V domains shown)
VH: B1 VH with T103V
VL: B1 VL with Q35A
notes: also called VL-Q35A; Kabat 29
B22: H1_L1.23 (antibody, V domains shown)
VH: B1 VH with T103V
VL: B1 VL with N34D
notes: also called VL-N34D; Kabat 28
B23: H1_L1.28 (antibody, V domains shown)
VH: B1 VH with T103V
VL: B1 VL with N34L
notes: also called VL-N34L; Kabat 28
B24: H1_L1.34 (antibody, V domains shown)
VH: B1 VH with T103V
VL: B1 VL with Q35N
notes: also called VL-Q35N; Kabat 29

The first experiment deals with T1, human PD-1-His (human, UniProt Q15116 25-167, limits assumed).
T1 construct: Antigen of the Octet assays; not shown: His tag
T1 sequence (Q15116 25-167 limits assumed): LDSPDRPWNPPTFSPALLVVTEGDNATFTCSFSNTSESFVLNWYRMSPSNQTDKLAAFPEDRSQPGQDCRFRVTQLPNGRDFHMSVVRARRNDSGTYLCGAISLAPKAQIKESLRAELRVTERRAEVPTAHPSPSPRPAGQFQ
As to the kind of experiment: Octet.
One may read the Kd as the concentration at which binding is half-saturated. The term koff denotes the rate constant with which the complex falls apart. As usually defined, the kon is a measure of how fast the partners come together. Read a high kon as fast association. For B1, binding was put at a Kd of 88 nM, the koff came to 0.0118 s⁻¹ and the kon was 134000 M⁻¹ s⁻¹.

B2 returned a dissociation constant Kd of 130 nM, a koff of 0.0174 s⁻¹ and an association rate constant (kon) of 134000 M⁻¹ s⁻¹.

Turning to B3, the affinity, expressed as Kd, was 9.63 nM; the off-rate constant (koff) stood at 0.00218 s⁻¹; the kon is 227000 M⁻¹ s⁻¹.

In the case of B4, the Kd was found to be 35.6 nM, the koff is 0.00633 s⁻¹ and the association rate constant (kon) was found to be 178000 M⁻¹ s⁻¹.

For B5, binding was characterised by a dissociation constant (Kd) of 110 nM, the koff was 0.0177 s⁻¹ and the kon was determined as 161000 M⁻¹ s⁻¹.

For B6, the Kd is 102 nM, the koff came out at 0.0157 s⁻¹ and the kon was 155000 M⁻¹ s⁻¹.

The target of a further experiment is T1, human PD-1-His. As to the kind of experiment: Octet. The source holds these as a separate data set. (BLI is a label-free optical method that tracks binding on a fibre tip over time.)
With B7, the equilibrium dissociation constant (Kd) stood at 177 nM, the koff is 0.0229 s⁻¹ and the kon was 130000 M⁻¹ s⁻¹.

In turn, B8 gave a Kd of 61.9 nM, a koff of 0.00901 s⁻¹ and a kon of 146000 M⁻¹ s⁻¹.

For B9, the Kd was determined as 35 nM, the koff came to 0.00476 s⁻¹ and the kon amounted to 136000 M⁻¹ s⁻¹.

B10 displayed a Kd of 38.1 nM, a koff of 0.00455 s⁻¹ and a kon of 120000 M⁻¹ s⁻¹.

As for B11, binding was put at a Kd of 305 nM, the koff was determined as 0.0405 s⁻¹ and the on-rate (kon) turned out to be 133000 M⁻¹ s⁻¹.

The molecule B12 showed a Kd of 51.5 nM, a koff of 0.0117 s⁻¹ and a kon of 227000 M⁻¹ s⁻¹.

For B13, the Kd worked out at 57.6 nM, the koff was 0.00638 s⁻¹ and the kon is 111000 M⁻¹ s⁻¹.

B14 came in with a Kd of 29 nM, a koff of 0.00364 s⁻¹ and a kon of 126000 M⁻¹ s⁻¹.

B15 displayed a dissociation constant Kd of 200 nM, a koff of 0.0183 s⁻¹ and a kon of 91600 M⁻¹ s⁻¹.

Regarding B16, the Kd was 271 nM, the koff is 0.0269 s⁻¹ and the kon was 99100 M⁻¹ s⁻¹.

The molecule B17 came in with a Kd of 54.5 nM, a koff of 0.00596 s⁻¹ and a kon of 109000 M⁻¹ s⁻¹.

In turn, B18 had a Kd of 152 nM, a koff of 0.0123 s⁻¹ and a kon of 80900 M⁻¹ s⁻¹.

Molecule B19 returned a Kd of 30.5 nM, a koff of 0.00439 s⁻¹ and a kon of 144000 M⁻¹ s⁻¹.

Molecule B20 returned a Kd of 42.7 nM, an off-rate (koff) of 0.00566 s⁻¹ and a kon of 133000 M⁻¹ s⁻¹.

Take B21: the dissociation constant Kd was determined as 60.9 nM, the koff worked out at 0.00678 s⁻¹ and the kon is 111000 M⁻¹ s⁻¹.

As to B22, the Kd was determined as 57.6 nM, the koff turned out to be 0.006 s⁻¹ and the kon is 104000 M⁻¹ s⁻¹.

B23 had a Kd of 403 nM, a koff of 0.0539 s⁻¹ and an on-rate constant (kon) of 134000 M⁻¹ s⁻¹.

Molecule B24 returned a Kd of 42.1 nM, a koff of 0.00451 s⁻¹ and an on-rate (kon) of 107000 M⁻¹ s⁻¹.
